Experiment [1] concerns the target T1, HERC2_(ZZ-DOC) (aa 2702–2914), construct encompassing both ZZ and DOC domains (human, UniProt O95714 2702-2914).
T1 construct: E3 ubiquitin ligase HERC2, human, ZZ and DOC domains, aa 2702–2914; 15N-labelled for NMR; also called linked HERC2_(ZZ-DOC); source: E. coli BL21 (DE3) RIL, purified (Ni-NTA, ULP1 cleavage); not shown: His8x-SUMO, N-terminal, cleaved
Nature of the experiment: NMR titration; 1H,15N HSQC of 0.1–0.2 mM 15N-labelled HERC2 protein titrated with unlabeled protein or peptide; 298 K; 20 mM Tris (pH 6.8) or 20 mM PBS (pH 6.5), 150 mM NaCl, 2 mM DTT, 10% D2O. Conditions: both partners purified.

Experiment [2] concerns the target T2, ZZ domain of HERC2 (HERC2ZZ, aa 2702–2755 with additional tryptophan at the C-terminus) (human, UniProt O95714 2702-2755).
T2 construct: E3 ubiquitin ligase HERC2, human, ZZ domain, aa 2702–2755 of the 4834 residue protein; additional tryptophan residue introduced at the C-terminus of HERC2ZZ to quantify the protein and for the tryptophan fluorescence assay; 15N-labelled in the NMR titrations where it is the observed protein; also called HERCZZ; WT HERC2ZZ; source: E. coli BL21 (DE3) RIL, purified (Ni-NTA, ULP1 cleavage; unlabeled …)
T2 chain: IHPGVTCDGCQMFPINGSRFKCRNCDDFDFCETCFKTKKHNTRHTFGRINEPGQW
The experiment is described as above. The conditions noted are these: both partners purified.

B1: histone H3_(1–12) peptide (aa 1–12 of H3) (peptide, UniProt P68431 2-13, looked up)
peptide: ARTKQTARKSTG
notes: histone H3, aa 1–12; also called H3 peptide
Turning to B1, the binding result in experiment [1] and in experiment [2] was “binds” throughout.
